# Source: patent CN101415728A
# B1: M14-C03.G4.P.agly (antibody, part only; not given: constant regions, human IgG4, part only)
# heavy, part: EVQLLESGGGLVQPGGSLRLSCAASGFTFSKYMMSWVRQAPGKGLEWVSYISPSGGLTWYADSVKGRFTISRDNSKNTLYLQMNSLRAEDTAVYYCARDGARGYGMDVWGQGTTVTVSS
# light, part: DIQMTQSPATLSLSPGERATLSCRASQSVSSYLAWYQQKPGQAPRLLIYDASNRATGIPARFSGSGSGTDFTLTISSLEPEDFAVYYCQQRSNWPPEVTFGPGTKVDIK
# B2: M13-C06.G4.P.agly (antibody, part only; not given: constant regions, part only)
# heavy, part: EVQLLESGGGLVQPGGSLRLSCAASGFTFSIYRMQWVRQAPGKGLEWVSGISPSGGTTWYADSVKGRFTISRDNSKNTLYLQMNSLRAEDTAVYYCARWSGGSGYAFDIWGQGTMVTVSS
# light, part: DIQMTQSPLSLSASVGDRVTITCQASRDIRNYLNWYQQKPGKAPKLLIYDASSLQTGVPSRFGGSGSGTDFSFTIGSLQPEDIATYYCQQFDSLPHTFGQGTKLEIK
# Molecular target: human IGF-1R expressed on cells (human)
# Assay: cell-based or functional assay
row,Binder,"inhibition of IGF-1- and IGF-2-mediated IGF-1R phosphorylation in MCF-7 cells, EC50 [nM]"
1,B1,< 1
2,B2,< 1
